Test results from patent WO1992011383A1.

Biological target: recombinant human TNF-alpha (human) (UniProt P01375)
Test: Scatchard analysis in solution: 125I-TNF and unlabelled TNF, antibody captured on anti-IgG agarose beads

Sequence of UniProt P01375 (P01375 77-233 limits assumed): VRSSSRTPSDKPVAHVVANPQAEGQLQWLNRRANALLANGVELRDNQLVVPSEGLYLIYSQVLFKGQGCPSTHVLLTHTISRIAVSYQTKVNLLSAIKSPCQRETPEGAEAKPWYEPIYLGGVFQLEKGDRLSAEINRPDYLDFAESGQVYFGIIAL

Substance: CDP571 (CDR-grafted CB0010, gEU light chain / 2hEUg heavy chain) (antibody)
- Kd: 0.14 nM
